Laboratory results from patent US8283445B2, “Extracellular-signal-regulated-kinase (ERK) heteropolyligand polypeptide” (Intrexon Corporation, priority 2006, dated 2012).

Assays:
[1] = test system: NIH3T3 cells; test: G418-resistant colony formation (cell proliferation) in NIH3T3 cells; format: cell-based, mouse
[2] = test system: MEK; settings: cited from earlier work
[3] = test system: ERK; test: Localized inhibition of ERK-mediated myelin basic protein phosphorylation in Cos7 cells; format: cell-based
Source text: A constitutively-active form of the RasV12 protein, a known activator of MAPK signaling pathways, was used to activate ERK kinase in defined regions of Cos7 cells. Several fusion proteins as described by Matallanas et al. Mol Cell Biol. 2006 January; 26(1):100-116 (hereby incorporated by reference), were used to activate ERK kinase in specific subcellular compartments. The constitutively-active RasV12 protein promoted cell-wide activation of ERK. The Lck-RasV 12 fusion protein activated ERK-protein associated with lipid rafts in or near the plasma membrane. […] Lane 1: control. Lane 2: ERK activity in cells expressing active Lck-RasV12 fusion protein. Lane 3: ERK activity in cells co-expressing active Lck-RasV12 fusion protein, and ERK decoy protein (ER localization signal, a c-Myc epitope tag, and the ERK polyligand of SEQ ID NO:1). Lane 4: ERK activity in cells co-expressing active Lck-RasV12 fusion protein, and CAT fragment-containing ER localization control protein. Lane 5: ERK activity in cells expressing active M1-RasV12 fusion protein. Lane 6: ERK activity in cells co-expressing active M1-RasV12 fusion protein, and ERK decoy protein. Lane 7: ERK activity in cells co-expressing active M1-RasV12 fusion protein, and CAT fragment-containing ER localization control protein. […]
The localized ERK ligands were detected by immunostaining for the c-myc epitope tag.

[4] = test system: NIH3T3 cells; test: Transformed foci formation (cell transformation) in NIH3T3 cells; format: cell-based, mouse; settings: for Inhibition of cell transformation rates: H-RasV12 transformed cells; for Inhibition of cell transformation (foci formation): transformation by H-ras V12 or v-Src, constructs 1 μg each, FIG. 20
Protocol: Transformed foci formation was assayed in NIH3T3 cells transfected with H-ras V12 or v-Src (0.25 ng) plus constructs (1 μg each).
Additionally, experiments where inhibition of ERK signaling using ERK ligands of the invention was compared to siRNAs and a small molecule inhibitor. The commercial siRNAs were designed for target specificity to either the ERK1 (sc-29307) or ERK2 (sc-35335) isoforms (Santa Cruz Biotechnology, Inc.). The small molecule inhibitor, UO126 (1,4-diamino-2,3-dicyano-1,4-bis(2-aminophenylthio) butadiene), inhibits ERK signaling through its upstream effector, MEK, and ERK is the only known substrate for MEK. Assays performed were phenotypic assays. The effects of inhibiting ERK activity were measured by looking at functional properties of the cells associated with the MAPK signaling pathway, such as, cell proliferation and transformation. The MAPK signaling cascade in these experiments is initiated by transfection of the cells with a vector containing a constitutively active proto-oncogene, either H-RasV12 or v-Src, which eventually causes the cells to acquire enhanced growth rate (colony formation) and cell transformation rate (foci formation). Inhibition of ERK activity in this cascade will result in reduced rates of proliferation or transformation as measured by numbers of G418-resitant colonies or foci.
Next, the effect of ERK inhibition on cell transformation was investigated using two means of initiating signaling cascades that lead to this biological property (FIG. 20). The first method is the constitutively active Ras mutant used herein above. The second is a constitutively active nonreceptor tyrosine kinase v-Src mutant (pp 60v-src) that also leads to cell transformation, potentially by multiple signaling pathways including the Ras-Raf-MEK-ERK pathway. […] However, when transformation was initiated with v-Src, there was a difference in the inhibition specificity arising from use of SEQ ID NO:1 localized to the ER and PLA. […] That is, ER-localized SEQ ID NO:1 has a significant effect on transformation induced by H-RasV12 but little to no effect when transformation is induced by v-Src.

[5] = pancellular polyligand, vector 1 μg, colonies counted after 15 days, FIG. 18
[6] = SEQ ID NO:1 fused to localization signals, constructs 1 μg each, 15 days, FIG. 19

## N#CC(=C(N)Sc1ccccc1N)C(C#N)=C(N)Sc1ccccc1N [UO126, 1,4-diamino-2,3-dicyano-1,4-bis(2-aminophenylthio) butadiene, reference compound]
[1]; UO126 1 μM, colonies counted after 15 days, FIG. 18
  Inhibition of colony formation: very effective
[2]
  Potency for MEK: ~70 nM

B1: SEQ ID NO:1: ERK heteropolyligand A-S1-B-S2-C-S3-D-S4-E-S5-F of SEQ ID NOS:91, 97, 28, 29, 30, 31, Xaa alanine, with spacers (protein)
chain: MPKKKPTPIQLNPAAKGRKPRDLELPAAAATGPLAPGPFGAGAYSPTAPTYSPTAPKKKGGGGAPRAPGGRRAGAGRRPRAPAKLSFFFPS
modifications: Synthetic polyligand
[3]; Cos7 cells with ER-active ERK (M1-RasV12), SEQ ID NO:1 co-expressed as fusion with ER localization signal and c-Myc tag
  ERK activity in the endoplasmic reticulum reduced (MBP phosphorylation): approximately 60%
[3]; ERK activated at plasma membrane, ER or cell wide by localized Ras overexpression
  Inhibition of ERK activity as measured by phosphorylation of myelin basic protein (MBP): location-selective inhibition of ERK activity at the endoplasmic reticulum
[1]; [5]
  Inhibition of cell proliferation (G418-resistant colony formation): partial inhibition
[4]
  Inhibition of cell transformation rates: ~50%
  Inhibition of cell transformation (foci formation): inhibited cell transformation

B2: NXP: SEQ ID NO:1 fused to a nuclear-exclusion localization signal and c-Myc epitope tag (protein)
chain: MPKKKPTPIQLNPAAKGRKPRDLELPAAAATGPLAPGPFGAGAYSPTAPTYSPTAPKKKGGGGAPRAPGGRRAGAGRRPRAPAKLSFFFPS
modifications: left off: small tags and cut ends
[1]; [6]
  Inhibition of cell proliferation (G418-resistant colony formation): slight inhibition

B3: NLS: SEQ ID NO:1 fused to a nuclear localization signal and c-Myc epitope tag (protein)
chain: MPKKKPTPIQLNPAAKGRKPRDLELPAAAATGPLAPGPFGAGAYSPTAPTYSPTAPKKKGGGGAPRAPGGRRAGAGRRPRAPAKLSFFFPS
modifications: left off: small tags and cut ends
[1]; [6]
  Inhibition of cell proliferation (G418-resistant colony formation): slight inhibition

B4: PLA-localized SEQ ID NO:1: SEQ ID NO:1 targeted to the plasma membrane (protein)
chain: MPKKKPTPIQLNPAAKGRKPRDLELPAAAATGPLAPGPFGAGAYSPTAPTYSPTAPKKKGGGGAPRAPGGRRAGAGRRPRAPAKLSFFFPS
modifications: left off: small tags and cut ends
[1]; [6]
  Inhibition of cell proliferation (G418-resistant colony formation): greatest degree of inhibition
[4]
  Inhibition of cell transformation rates: ~50%
[4]; transformation initiated with v-Src
  Decrease in transformation: ~60%

B5: SEQ ID NO:5: ERK heteropolyligand of SEQ ID NOS:32, 98, 33, 34, 35, 100, 36, 37, 107, Xaa alanine, with spacers (protein)
chain: PPLMAPPFYPQKGRKPRDLELPLAAAAKQAEAVTAPRGAGAKNIVTPRAPPPSQGKGGGGTLSPIAPRAPAKLSFQFPSSAGPGAEFLKPIESSILAQRRVRKLPSTAGAGKRELVEPLAPSGEAPNQALLRAAGGYSPTAPTYSPTAPKKKGGAATPTAAHSGSHLFGFP
modifications: Synthetic polyligand
[1]; [5]
  Inhibition of cell proliferation (G418-resistant colony formation): partial inhibition
[4]
  Inhibition of cell transformation rates: ~50%
  Inhibition of cell transformation (foci formation): inhibited cell transformation
